The target in one test is T1, human VEGFR-3 (Homo sapiens, UniProt P35916).
T1 construct: soluble Ig-fusion proteins containing the extracellular domains of human VEGFR-1, VEGFR-2 and VEGFR-3; made in house; host or cells: human 293 EBNA cells, transient expression
T1 sequence (P35916 25-775 limits assumed): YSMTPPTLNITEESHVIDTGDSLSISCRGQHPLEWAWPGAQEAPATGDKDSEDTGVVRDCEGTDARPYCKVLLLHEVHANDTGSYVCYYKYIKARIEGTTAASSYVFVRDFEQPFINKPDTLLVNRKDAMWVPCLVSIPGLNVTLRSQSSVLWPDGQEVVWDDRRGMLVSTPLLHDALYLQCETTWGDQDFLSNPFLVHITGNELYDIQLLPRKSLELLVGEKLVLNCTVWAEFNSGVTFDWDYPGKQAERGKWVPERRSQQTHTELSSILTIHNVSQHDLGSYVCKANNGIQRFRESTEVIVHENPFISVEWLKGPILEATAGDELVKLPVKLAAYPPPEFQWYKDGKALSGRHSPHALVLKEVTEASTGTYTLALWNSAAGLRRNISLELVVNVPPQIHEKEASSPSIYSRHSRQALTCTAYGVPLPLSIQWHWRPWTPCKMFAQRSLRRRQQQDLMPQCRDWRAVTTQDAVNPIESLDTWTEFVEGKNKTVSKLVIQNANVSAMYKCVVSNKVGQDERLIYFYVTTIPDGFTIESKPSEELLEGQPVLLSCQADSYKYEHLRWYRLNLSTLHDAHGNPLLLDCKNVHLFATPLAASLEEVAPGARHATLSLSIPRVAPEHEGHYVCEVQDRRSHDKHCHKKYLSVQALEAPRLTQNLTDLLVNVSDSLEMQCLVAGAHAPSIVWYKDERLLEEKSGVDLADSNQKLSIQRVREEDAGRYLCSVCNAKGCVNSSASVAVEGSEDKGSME
Kind of test: Binding to soluble VEGFR-3-Ig fusion protein. As to conditions: 35S-labeled protein in conditioned medium from 293 cells, precipitation with Ig-fusion protein. The procedure:
To assess the interactions between full length and truncated PDGF-C and the VEGF receptors, full length and truncated PDGF-C were tested for their capacity to bind to soluble Ig-fusion proteins containing the extracellular domains of human VEGFR-1, VEGFR-2 and VEGFR-3 (Olofsson et al., Proc. Natl. Acad. Sci. USA, 1998 95:11709-11714). The fusion proteins, designated VEGFR-1-Ig, VEGFR-2-Ig and VEGFR-3-Ig, were transiently expressed in human 293 EBNA cells. All Ig fusion proteins were human VEGFRs. Cells were incubated for 24 hours after transfection, washed with Dulbecco's Modified Eagle Medium (DMEM) containing 0.2% bovine serum albumin and starved for 24 hours. The fusion proteins were then precipitated from the clarified conditioned medium using protein A-Sepharose beads (Pharmacia). The beads were combined with 100 microliters of 10× binding buffer (5% bovine serum albumin, 0.2% Tween 20 and 10 µg/ml heparin) and 900 microliter of conditioned medium from 293 cells that had been transfected with mammalian expression plasmids encoding full length or truncated PDGF-C or control vector, then metabolically labeled with ^35S-cysteine and methionine (Promix, Amersham) for 4 to 6 hours. […] Labeled proteins that were bound to the Ig-fusion proteins were analyzed by SDS-PAGE under reducing conditions. Radiolabeled proteins were detected using a phosphorimager analyzer.

In another test the target is PDGF alpha receptors (Homo sapiens, UniProt P16234). Briefly: Binding of radiolabeled truncated PDGF-C to PAE-1 cells expressing PDGF alpha receptors. Also noted: expressed in transfected cells; host or cells: porcine aortic endothelial (PAE-1) cells. As to conditions: 125I-labeled protein, on ice 90 minutes. The method, then: To assess the interactions between truncated PDGF-C and the PDGF alpha and beta receptors, truncated PDGF-C was tested for its capacity to bind to porcine aortic endothelial-1 (PAE-1) cells expressing PDGF alpha or beta receptors, respectively (Eriksson et al., EMBO J, 1992 11:543-550). The binding experiments were performed essentially as described in Heldin et al. (EMBO J, 1988 7:1387 1393). Five micrograms of truncated PDGF-C protein in ten microliters of sodium borate buffer was radiolabeled using the Bolton-Hunter reagent (Amersham) to a specific activity of 4×10^5 cpm/ng. Different concentrations of radiolabeled truncated PDGF-C, with or without added unlabeled protein, in binding buffer (PBS containing 1 mg/ml of bovine serum albumin) was added to the receptor expressing PAE-1 cells plated in 24-well culture dishes on ice for 90 minutes. After three washes with binding buffer, cell-bound ^125I-labeled PDGF-C was extracted by lysis of cells in 20 mM Tris-HCl, pH 7.5, 10% glycerol, 1% Triton X-100. The amount of cell-bound radioactivity was determined in a gamma-counter. Non-specific binding was estimated by including a 100-fold molar excess of truncated PDGF-C in some experiments. […] The binding was specific as radiolabeled PDGF-C was quantitatively displaced by a 100-fold molar excess of unlabeled protein.
Chain of PDGF alpha receptors (P16234 24-1089): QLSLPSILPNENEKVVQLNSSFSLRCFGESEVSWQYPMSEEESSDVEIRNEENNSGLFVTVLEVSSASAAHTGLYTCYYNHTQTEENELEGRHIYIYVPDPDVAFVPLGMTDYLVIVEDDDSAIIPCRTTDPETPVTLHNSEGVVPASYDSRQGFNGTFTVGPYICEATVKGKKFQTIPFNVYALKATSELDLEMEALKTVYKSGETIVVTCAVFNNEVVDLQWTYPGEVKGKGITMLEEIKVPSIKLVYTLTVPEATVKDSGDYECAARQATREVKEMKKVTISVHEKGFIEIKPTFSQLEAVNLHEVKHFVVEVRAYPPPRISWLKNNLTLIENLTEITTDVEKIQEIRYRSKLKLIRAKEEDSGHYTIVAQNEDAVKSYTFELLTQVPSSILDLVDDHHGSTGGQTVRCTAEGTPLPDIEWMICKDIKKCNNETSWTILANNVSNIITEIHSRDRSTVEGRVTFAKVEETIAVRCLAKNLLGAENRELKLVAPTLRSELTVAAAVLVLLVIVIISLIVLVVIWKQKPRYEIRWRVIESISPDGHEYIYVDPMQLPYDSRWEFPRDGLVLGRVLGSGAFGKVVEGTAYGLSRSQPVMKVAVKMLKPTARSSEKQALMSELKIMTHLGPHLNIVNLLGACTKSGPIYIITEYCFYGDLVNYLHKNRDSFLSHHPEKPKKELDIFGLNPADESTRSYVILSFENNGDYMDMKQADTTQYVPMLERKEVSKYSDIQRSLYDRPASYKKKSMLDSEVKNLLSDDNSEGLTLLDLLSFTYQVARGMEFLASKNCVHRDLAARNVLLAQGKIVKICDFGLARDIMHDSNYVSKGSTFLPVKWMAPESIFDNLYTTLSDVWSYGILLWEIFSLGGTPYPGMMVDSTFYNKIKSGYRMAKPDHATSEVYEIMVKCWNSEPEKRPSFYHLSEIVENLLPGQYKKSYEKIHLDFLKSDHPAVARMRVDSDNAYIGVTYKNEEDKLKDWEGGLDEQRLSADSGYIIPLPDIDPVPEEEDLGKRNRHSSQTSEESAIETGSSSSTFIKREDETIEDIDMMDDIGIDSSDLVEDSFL

The target in the next test is PDGF beta receptors (Homo sapiens, UniProt P09619). Kind of test: Competition with 125I-PDGF-BB for binding to PAE-1 cells expressing PDGF beta-receptor. Further details: expressed in transfected cells. The note with it: 5 ng/ml 125I-PDGF-BB tracer, on ice 90 minutes. The procedure:
Next, full length and truncated PDGF-C were tested for their capacity to bind to human PDGF receptors alpha and beta by analyzing their abilities to compete with PDGF-BB for binding to PDGF receptors. The binding experiments were performed on porcine aortic endothelial-1 (PAE-1) cells stably expressing the human PDGF receptors alpha and beta (Eriksson et al., EMBO J, 1992, 11, 543-550). Binding experiments were performed essentially as in Heldin et al. (EMBO J, 1988, 7:1387-1393). Different concentrations of human full-length and truncated PDGF-C, or human PDGF-BB were mixed with 5 ng/ml of ^125I-PDGF-BB in binding buffer (PBS containing 1 mg/ml of bovine serum albumin). Aliquots were incubated with the receptor expressing PAE-1 cells plated in 24-well culture dishes on ice for 90 minutes. After three washes with binding buffer, cell-bound 125]-PDGF-BB was extracted by lysis of cells in 20 mM Tris-HCl, pH 7.5, 10% glycerol, 1% Triton X-100. The amount of cell bound radioactivity was determined in a gamma-counter. A standard curve for the binding of ^125I-labeled PDGF BB homodimers to PAE-1 cells expressing PDGF alpha-receptor is shown in FIG. 18.

Chain of PDGF beta receptors (P09619 33-1106): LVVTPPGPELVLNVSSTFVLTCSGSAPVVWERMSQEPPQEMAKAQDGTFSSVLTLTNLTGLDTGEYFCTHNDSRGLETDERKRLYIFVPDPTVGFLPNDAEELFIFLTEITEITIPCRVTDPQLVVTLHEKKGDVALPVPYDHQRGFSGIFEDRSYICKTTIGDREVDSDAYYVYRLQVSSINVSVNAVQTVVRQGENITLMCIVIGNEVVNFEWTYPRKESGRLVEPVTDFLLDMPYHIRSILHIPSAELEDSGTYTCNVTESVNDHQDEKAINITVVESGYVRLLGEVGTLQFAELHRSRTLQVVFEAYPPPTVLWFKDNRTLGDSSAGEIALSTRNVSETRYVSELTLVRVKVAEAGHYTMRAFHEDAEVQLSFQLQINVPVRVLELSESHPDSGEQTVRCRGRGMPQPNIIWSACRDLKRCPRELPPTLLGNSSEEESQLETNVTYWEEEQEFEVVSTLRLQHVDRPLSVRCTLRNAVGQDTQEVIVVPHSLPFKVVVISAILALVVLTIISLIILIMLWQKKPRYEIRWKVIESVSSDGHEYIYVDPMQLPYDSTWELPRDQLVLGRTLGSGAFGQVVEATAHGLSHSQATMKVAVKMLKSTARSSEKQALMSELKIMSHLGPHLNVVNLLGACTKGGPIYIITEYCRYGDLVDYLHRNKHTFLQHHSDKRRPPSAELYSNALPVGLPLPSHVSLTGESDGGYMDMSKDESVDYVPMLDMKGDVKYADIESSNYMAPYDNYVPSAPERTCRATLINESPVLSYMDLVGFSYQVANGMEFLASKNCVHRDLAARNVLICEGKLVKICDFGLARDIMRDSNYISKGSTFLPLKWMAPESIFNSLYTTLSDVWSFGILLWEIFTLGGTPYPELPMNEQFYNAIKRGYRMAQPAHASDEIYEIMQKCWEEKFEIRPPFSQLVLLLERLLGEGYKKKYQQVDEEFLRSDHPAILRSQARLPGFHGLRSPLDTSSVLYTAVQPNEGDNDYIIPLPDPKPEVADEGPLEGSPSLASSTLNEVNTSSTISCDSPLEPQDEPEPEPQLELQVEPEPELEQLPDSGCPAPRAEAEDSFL

B1: PDGF-CC: recombinant human PDGF-CC core domain homodimer, residues 230-345 of full-length PDGF-C (SEQ ID NO:40), produced in baculovirus infected insect cells (protein)
chain: GRKSRVVDLNLLTEEVRLYSCTPRNFSVSIREELKRTDTIFWPGCLLVKRCGGNCACCLHNCNECQCVPSKVTKKYHEVLQLRPKTGVRGLHKSLTDVALEHHEECDCVCRGSTGG
modifications: homodimer; PDGF-C core domain
B1: the “interaction with VEGFR-3-Ig” value with human VEGFR-3 was “failed to show any interaction”. The “binding to cells expressing PDGF alpha receptors” value with PDGF alpha receptors is reported as “binds”. The “competition for binding to the PDGF beta-receptor” value with PDGF beta receptors is on record as “failed to compete”.

The values above are taken from US20070172423A1, “Composition and method for modulating vasculogenesis for angiogenesis” (priority 1998, published 2007).
